In patent US20240158474A1 (SINO BIOLOGICAL, published 2024) one finds OD450-blank data, which are given here for one molecule.

What all share (test): indirect ELISA, VLP coated at 2 µg/mL, antibody 10 ng/mL, HRP goat anti-rabbit Fc
In general terms: In an ELISA, binding on a coated surface is turned into a signal by an enzyme label.

The target of assay [1] is HPV39 VLP protein (human papillomavirus type 39; human …, UniProt P24838 1-469).
In assay [2] the target is T1, HPV33 VLP protein (human papillomavirus type 33, UniProt P06416 1-499).
T1 construct: Complete VLP protein; no limits of the construct printed, whole entry named; also called HPV33L1
T1 sequence: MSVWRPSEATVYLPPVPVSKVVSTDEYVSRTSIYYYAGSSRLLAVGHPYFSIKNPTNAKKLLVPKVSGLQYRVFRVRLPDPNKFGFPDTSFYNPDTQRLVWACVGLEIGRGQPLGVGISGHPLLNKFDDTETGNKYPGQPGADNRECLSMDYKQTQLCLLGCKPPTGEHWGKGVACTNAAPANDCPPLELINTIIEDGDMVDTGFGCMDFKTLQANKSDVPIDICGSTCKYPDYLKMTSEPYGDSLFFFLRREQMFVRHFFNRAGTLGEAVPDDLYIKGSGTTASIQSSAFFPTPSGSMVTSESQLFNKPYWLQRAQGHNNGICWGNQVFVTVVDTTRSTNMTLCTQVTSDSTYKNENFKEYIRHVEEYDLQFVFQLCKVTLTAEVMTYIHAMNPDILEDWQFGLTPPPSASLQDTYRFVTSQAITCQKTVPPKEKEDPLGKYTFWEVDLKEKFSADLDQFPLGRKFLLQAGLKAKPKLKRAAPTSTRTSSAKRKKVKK

Assay [3] concerns the target T2, HPV59 VLP protein (human papillomavirus type 59).
T2 construct: Complete VLP protein; no limits of the construct printed, whole entry named; also called HPV59L1

Assay [4] has as its target T3, HPV6 VLP protein (human papillomavirus type 6 (C-terminal …, UniProt P69898 1-469)).
T3 construct: Virus-like particle self-assembled from the L1 chain, expressed in an insect cell system; also called HPV6 L1; HPV6L1(1-469Y)+HPV33L1(474K-499K)
T3 sequence: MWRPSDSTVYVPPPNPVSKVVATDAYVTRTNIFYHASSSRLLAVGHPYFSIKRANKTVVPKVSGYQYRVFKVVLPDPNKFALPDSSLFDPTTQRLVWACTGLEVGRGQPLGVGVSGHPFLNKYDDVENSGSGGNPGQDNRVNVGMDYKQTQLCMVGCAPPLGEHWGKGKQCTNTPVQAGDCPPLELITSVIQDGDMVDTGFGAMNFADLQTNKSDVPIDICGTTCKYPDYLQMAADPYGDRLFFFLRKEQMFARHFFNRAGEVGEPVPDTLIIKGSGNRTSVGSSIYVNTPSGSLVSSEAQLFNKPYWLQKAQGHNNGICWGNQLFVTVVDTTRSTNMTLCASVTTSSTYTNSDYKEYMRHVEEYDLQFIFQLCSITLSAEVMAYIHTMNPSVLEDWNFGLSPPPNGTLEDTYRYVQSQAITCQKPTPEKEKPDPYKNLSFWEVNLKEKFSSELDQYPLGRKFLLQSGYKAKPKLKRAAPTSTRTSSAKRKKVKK

For assay [5], the target named is T4, HPV16 VLP protein (human papillomavirus type 16, UniProt P03101 1-474).
T4 construct: Complete VLP protein; no limits of the construct printed, whole entry named; also called HPV-16L1
T4 sequence: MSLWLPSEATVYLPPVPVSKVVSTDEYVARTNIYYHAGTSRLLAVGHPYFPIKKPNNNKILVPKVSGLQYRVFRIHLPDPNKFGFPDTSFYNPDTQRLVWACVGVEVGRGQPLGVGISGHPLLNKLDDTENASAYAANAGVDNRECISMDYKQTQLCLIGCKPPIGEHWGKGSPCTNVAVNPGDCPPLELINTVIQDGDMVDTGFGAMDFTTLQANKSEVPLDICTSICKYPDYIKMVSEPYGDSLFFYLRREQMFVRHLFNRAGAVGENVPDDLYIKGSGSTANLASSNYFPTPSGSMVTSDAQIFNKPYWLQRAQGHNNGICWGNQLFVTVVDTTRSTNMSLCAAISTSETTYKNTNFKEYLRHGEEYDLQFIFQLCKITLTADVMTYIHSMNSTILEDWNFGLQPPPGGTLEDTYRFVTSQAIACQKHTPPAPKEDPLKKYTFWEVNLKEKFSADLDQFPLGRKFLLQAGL

Assay [6] has as its target T5, HPV45 VLP protein (human papillomavirus type 45; human …, UniProt P36741 1-478; P06416 474-499).
T5 construct: range 1-478;range 474-499; Complete VLP protein used as coating protein; also called HPV45L1(1-478L)+HPV33L1(474K-499K)
T5 sequence: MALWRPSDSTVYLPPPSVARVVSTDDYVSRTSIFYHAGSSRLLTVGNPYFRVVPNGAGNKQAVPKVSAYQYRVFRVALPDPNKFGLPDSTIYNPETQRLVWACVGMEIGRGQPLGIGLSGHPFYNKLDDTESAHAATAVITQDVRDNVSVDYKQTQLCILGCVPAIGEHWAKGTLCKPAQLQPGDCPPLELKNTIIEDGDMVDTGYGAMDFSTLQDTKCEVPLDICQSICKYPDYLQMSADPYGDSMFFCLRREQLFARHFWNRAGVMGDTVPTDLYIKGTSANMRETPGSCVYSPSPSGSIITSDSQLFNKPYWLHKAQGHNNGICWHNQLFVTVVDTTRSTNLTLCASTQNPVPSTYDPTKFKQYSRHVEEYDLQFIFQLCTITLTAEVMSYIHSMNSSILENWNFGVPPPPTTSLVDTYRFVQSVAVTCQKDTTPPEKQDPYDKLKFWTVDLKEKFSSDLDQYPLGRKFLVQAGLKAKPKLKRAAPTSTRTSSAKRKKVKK

The target in assay [7] is T6, HPV18 VLP protein (human papillomavirus type 18).
T6 construct: Complete VLP protein; no limits of the construct printed, whole entry named; also called P18SHELL

B1: monoclonal antibody HPV6-R003 (antibody, V domains shown)
VH: QQQLEESGGGLVKPGGTLTLTCKASGIDLSNYYMCWVRQAPGKGLEWIGCIYTGSGRTYYASWAKGRFTISKASSTTVTLQMTSLTAADTATYFCARDYLGWRASNIWGPGTLVTVSS
VL: ELVMTQTPSSVSAAVGGTVTINCQASQSVYSNNLVWYQQKPGQPPKLLIYGASTLASGVPSRFKGSGSGTQFTLTISDVVCDDAATYYCGGYVSDSTDGTAFGGGTEVVVKG
notes: here built from variable plus constant region so that the signal peptides are left out; In the sandwich ELISA the same antibody is used as coating antibody and, labelled with horseradish peroxidase, as detection antibody; also called anti-HPV6 L1 protein antibody
In the case of B1, the OD450-blank is 0.047 OD450 in assay [1]; 0.047 OD450 in assay [2]; 0.041 OD450 in assay [3]; 2.42 OD450 in assay [4]; 0.048 OD450 in assay [5]; 0.061 OD450 in assay [6]. This molecule also had an OD450-blank in assay [7] of 0.045 OD450.
